Target: T1, human melanoma chondroitin sulfate proteoglycan (MCSP) (human, UniProt Q6UVK1 30-2322)
T1 construct: whole, on cells; also called HMW-MAA; high molecular weight-melanoma-associated antigen
Experiment: flow cytometry on A375 human melanoma cells
Protocol: The purified, monomeric humanized antibody variants were tested for binding to the human HMW-MAA/MCSP antigen on the A375 human melanoma cell line, using a flow cytometry-based assay. 200,000 cells (in 180 μl FACS buffer (PBS containing 2% FCS and 5 mM EDTA) were transferred to 5 ml polystyrene tubes and 20 μl 10 fold concentrated anti-MCSP antibody (primary antibody) samples (1-5000 ng/ml final concentration) or PBS only were added. After gently mixing the samples, the tubes were incubated at 4° C. for 30 min in the dark. Subsequently, samples were washed twice with FACS buffer and pelleted at 300 g for 3 min. Supernatant was aspirated off and cells were taken up in 50 μl FACS buffer and 2 μl secondary antibody (anti-Fc-specific F(ab′)2-FITC fragments (Jackson Immuno Research Laboratories, USA)) was added and the tubes were incubated at 4° C. for 30 min. Samples were washed twice with FACS buffer and taken up in 500 μl of FACS buffer for analysis by Flow Cytometry. Binding was determined by plotting the geometric mean fluorescence against the antibody concentrations.

T1 sequence (Q6UVK1 30-2322): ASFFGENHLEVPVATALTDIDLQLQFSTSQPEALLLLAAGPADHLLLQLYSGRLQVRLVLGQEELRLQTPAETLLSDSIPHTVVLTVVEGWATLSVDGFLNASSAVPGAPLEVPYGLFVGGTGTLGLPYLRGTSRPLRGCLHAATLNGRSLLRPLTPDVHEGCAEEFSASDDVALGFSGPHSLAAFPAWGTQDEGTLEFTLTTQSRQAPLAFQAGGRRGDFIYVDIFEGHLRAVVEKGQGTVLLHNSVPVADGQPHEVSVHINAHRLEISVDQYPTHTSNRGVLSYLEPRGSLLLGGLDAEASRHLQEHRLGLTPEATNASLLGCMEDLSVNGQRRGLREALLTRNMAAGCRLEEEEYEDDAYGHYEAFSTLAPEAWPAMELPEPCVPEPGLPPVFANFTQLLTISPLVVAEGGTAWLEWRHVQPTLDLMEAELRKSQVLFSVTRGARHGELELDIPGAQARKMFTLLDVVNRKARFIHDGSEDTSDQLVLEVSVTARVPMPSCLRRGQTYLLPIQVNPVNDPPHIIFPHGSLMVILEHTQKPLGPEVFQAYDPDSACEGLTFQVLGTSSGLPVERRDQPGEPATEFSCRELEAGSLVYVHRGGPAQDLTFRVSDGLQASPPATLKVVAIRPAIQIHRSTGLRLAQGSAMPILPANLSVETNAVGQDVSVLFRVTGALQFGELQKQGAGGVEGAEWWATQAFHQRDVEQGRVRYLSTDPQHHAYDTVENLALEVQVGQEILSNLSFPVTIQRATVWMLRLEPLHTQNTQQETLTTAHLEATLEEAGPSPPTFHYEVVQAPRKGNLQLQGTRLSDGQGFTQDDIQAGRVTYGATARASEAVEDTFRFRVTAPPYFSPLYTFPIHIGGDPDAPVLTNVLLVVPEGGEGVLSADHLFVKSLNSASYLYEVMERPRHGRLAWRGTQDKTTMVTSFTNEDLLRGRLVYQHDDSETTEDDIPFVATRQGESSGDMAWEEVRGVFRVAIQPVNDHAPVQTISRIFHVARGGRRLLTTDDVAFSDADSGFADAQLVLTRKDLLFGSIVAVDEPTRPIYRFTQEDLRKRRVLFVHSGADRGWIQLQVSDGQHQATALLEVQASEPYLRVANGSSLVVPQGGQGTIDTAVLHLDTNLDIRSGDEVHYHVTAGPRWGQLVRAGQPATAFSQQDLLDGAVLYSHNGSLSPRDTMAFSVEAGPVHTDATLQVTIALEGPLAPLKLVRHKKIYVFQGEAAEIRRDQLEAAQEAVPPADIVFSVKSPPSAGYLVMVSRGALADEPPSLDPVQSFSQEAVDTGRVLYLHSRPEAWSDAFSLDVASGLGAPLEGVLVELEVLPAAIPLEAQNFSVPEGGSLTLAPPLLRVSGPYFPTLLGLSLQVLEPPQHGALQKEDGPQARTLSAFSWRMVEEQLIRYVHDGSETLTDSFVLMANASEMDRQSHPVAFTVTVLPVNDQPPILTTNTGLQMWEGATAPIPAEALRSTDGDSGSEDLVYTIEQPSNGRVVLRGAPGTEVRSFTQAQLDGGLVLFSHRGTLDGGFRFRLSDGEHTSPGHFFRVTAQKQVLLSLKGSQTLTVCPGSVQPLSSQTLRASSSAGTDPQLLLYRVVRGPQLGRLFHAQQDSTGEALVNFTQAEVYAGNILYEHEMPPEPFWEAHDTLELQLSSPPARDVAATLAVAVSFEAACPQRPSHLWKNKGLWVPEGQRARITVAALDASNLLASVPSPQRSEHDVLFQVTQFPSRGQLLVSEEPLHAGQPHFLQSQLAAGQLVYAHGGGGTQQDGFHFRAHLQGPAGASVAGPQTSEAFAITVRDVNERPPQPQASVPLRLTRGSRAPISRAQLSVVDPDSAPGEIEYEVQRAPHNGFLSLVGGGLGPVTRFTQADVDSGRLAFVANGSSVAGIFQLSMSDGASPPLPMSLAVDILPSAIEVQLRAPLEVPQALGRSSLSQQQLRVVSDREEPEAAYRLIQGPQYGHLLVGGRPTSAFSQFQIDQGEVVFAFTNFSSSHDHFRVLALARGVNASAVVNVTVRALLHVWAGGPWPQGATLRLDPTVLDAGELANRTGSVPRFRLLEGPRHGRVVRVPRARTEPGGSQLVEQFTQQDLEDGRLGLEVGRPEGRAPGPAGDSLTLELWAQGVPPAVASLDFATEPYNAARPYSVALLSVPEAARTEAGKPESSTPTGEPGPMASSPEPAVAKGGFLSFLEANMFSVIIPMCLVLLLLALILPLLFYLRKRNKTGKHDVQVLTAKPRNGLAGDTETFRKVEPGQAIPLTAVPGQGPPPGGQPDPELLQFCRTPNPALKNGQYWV

| binding result | Binder |
| --- | --- |
| binds | M-KV3 light chain coexpressed with murine 225.28S heavy chain (mVH) (antibody, V domains shown, The VL entry ends in KRT; also called mVH/M-KV3) VH: QVKLQQSGGGLVQPGGSMKLSCVVSGFTFSNYWMNWVRQSPEKGLEWIAEIRLKSNNFGRYYAESVKGRFTISRDDSKSSAYLQMINLRAEDTGIYYCTSYGNYVGHYFDHWGQGTTVTVSS VL: DIQLTQSPSFLSASVGDRVTVTCKASQNVDTNVAWYQQKPGKAPEPLLFSASYRYTGVPSRFSGSGSGTEFTLTISSLQPEDFATYYCQQYNSYPLTFGGGTKVEIKR |
| binds | M-HLD heavy chain paired with the M-KV9 light chain (antibody, V domains shown, also called M-HLD/M-KV9) VH: QVQLVQSGAEVKKPGASVKVSCKASGFTFSNYWMNWVRQAPGQGLEWMGEIRLKSNNFGRYYAESVKGRVTITRDTSMSTAYMELSSLRSEDTAVYYCAAYGNYVGHYFDHWGQGTTVTVSS VL: DIQLTQSPSFLSASVGDRVTITCKASQNVDTNVAWYQQKPGQAPRPLIYSASYRYTGVPSRFSGSGSGTEFTLTISSLQPEDFATYYCQQYNSYPLTFGGGTKVEIKR |
| binds | M-HHA heavy chain coexpressed with murine 225.28S light chain (mVL) (antibody, V domains shown, also called M-HHA/mVL) VH: EVQLVESGGGLVKPGGSLRLSCAASGFTFSNYWMNWVRQAPGKGLEWVGEIRLKSNNFGRYYAASVKGRFTISRDDSKNTLYLQMNSLKTEDTAVYYCTTYGNYVGHYFDHWGQGTTVTVSS VL: DIELTQSPKFMSTSVGDRVSVTCKASQNVDTNVAWYQQKPGQSPEPLLFSASYRYTGVPDRFTGSGSGTDFTLTISNVQSEDLAEYFCQQYNSYPLTFGGGTKLEIK |
| binds | M-HLG heavy chain paired with the light chain construct M-KV4 (antibody, V domains shown, also called M-HLG/M-KV4) VH: EVQLVESGGGLVQPGGSLRLSCAASGFTFSNYWMNWVRQAPGKGLEWVAEIRLKSNNFGRYYAASVKGRFTISRDDSKNTLYLQMNSLKTEDTAVYYCTTYGNYVGHYFDHWGQGTTVTVSS VL: DIQLTQSPSFLSASVGDRVTITCKASQNVDTNVAWYQQKPGKAPEPLLFSASYRYTGVPSRFSGSGSGTEFTLTISSLQPEDFATYYCQQYNSYPLTFGGGTKVEIKR |
| binds | M-KV12 light chain combined with the M-HLG heavy chain (antibody, V domains shown, also called M-HLG/M-KV12) VH: EVQLVESGGGLVQPGGSLRLSCAASGFTFSNYWMNWVRQAPGKGLEWVAEIRLKSNNFGRYYAASVKGRFTISRDDSKNTLYLQMNSLKTEDTAVYYCTTYGNYVGHYFDHWGQGTTVTVSS VL: DIQLTQSPSFLSASVGDRVTITCKASQNVDTNVAWYQQKPGQAPRPLIYSASYLQSGVPSRFSGSGSGTEFTLTISSLQPEDFATYYCQQYNSYPLTFGGGTKVEIKR |
| binds | M-HHC heavy chain coexpressed with murine 225.28S light chain (mVL) (antibody, V domains shown, also called M-HHC/mVL) VH: EVQLVESGGGLVKPGGSLRLSCAASGFTFSNYWMNWVRQAPGKGLEWVANIRLKSNNFGRYYAESVKGRFTISRDDSKNTLYLQMNSLKTEDTAVYYCTSYGNYVGHYFDHWGQGTTVTVSS VL: DIELTQSPKFMSTSVGDRVSVTCKASQNVDTNVAWYQQKPGQSPEPLLFSASYRYTGVPDRFTGSGSGTDFTLTISNVQSEDLAEYFCQQYNSYPLTFGGGTKLEIK |

Continued, binder first:

| Binder | binding result |
| --- | --- |
| M-HLE1 heavy chain paired with the light chain construct M-KV4 (antibody, V domains shown, also called M-HLE1/M-KV4) VH: EVQLVESGGGLVKPGGSLRLSCAASGFTFSNYWMNWVRQAPGKGLEWVGEIRLKSNNFGRYYAQKFQERVTITRDMSTSTAYMELSSLRSEDTAVYYCAAYGNYVGHYFDHWGQGTTVTVSS VL: DIQLTQSPSFLSASVGDRVTITCKASQNVDTNVAWYQQKPGKAPEPLLFSASYRYTGVPSRFSGSGSGTEFTLTISSLQPEDFATYYCQQYNSYPLTFGGGTKVEIKR | binds |
| M-HLC heavy chain combined with the light chain construct M-KV3 (antibody, V domains shown, also called M-HLC/M-KV3) VH: QVQLVQSGAEVKKPGASVKVSCKASGYTFTNYWMNWVRQAPGQGLEWMGEIRLKSNNFGRYYAESVKGRVTITRDTSMSTAYMELSSLRSEDTAVYYCAAYGNYVGHYFDHWGQGTTVTVSS VL: DIQLTQSPSFLSASVGDRVTVTCKASQNVDTNVAWYQQKPGKAPEPLLFSASYRYTGVPSRFSGSGSGTEFTLTISSLQPEDFATYYCQQYNSYPLTFGGGTKVEIKR | no binding (tested: 1-5000 ng/ml final concentration) |
| M-HLA heavy chain combined with the light chain construct M-KV3 (antibody, V domains shown, also called M-HLA/M-KV3) VH: QVQLVQSGAEVKKPGASVKVSCKASGYTFTNYWMNWVRQAPGQGLEWMGEIRLKSNNFGRYYAQKFQGRVTMTRDTSTSTVYMELSSLRSEDTAVYYCARYGNYVGHYFDHWGQGTTVTVSS VL: DIQLTQSPSFLSASVGDRVTVTCKASQNVDTNVAWYQQKPGKAPEPLLFSASYRYTGVPSRFSGSGSGTEFTLTISSLQPEDFATYYCQQYNSYPLTFGGGTKVEIKR | no binding (tested: 1-5000 ng/ml final concentration) |
| M-HLB heavy chain combined with the light chain construct M-KV3 (antibody, V domains shown, also called M-HLB/M-KV3) VH: QVQLVQSGAEVKKPGASVKVSCKASGYTFTNYWMNWVRQAPGQGLEWMGEIRLKSNNFGRYYAQKFQGRVTITRDTSMSTAYMELSSLRSEDTAVYYCAAYGNYVGHYFDHWGQGTTVTVSS VL: DIQLTQSPSFLSASVGDRVTVTCKASQNVDTNVAWYQQKPGKAPEPLLFSASYRYTGVPSRFSGSGSGTEFTLTISSLQPEDFATYYCQQYNSYPLTFGGGTKVEIKR | no binding (tested: 1-5000 ng/ml final concentration) |
| M-HLE2 heavy chain paired with the light chain construct M-KV4 (antibody, V domains shown, also called M-HLE2/M-KV4) VH: EVQLVESGGGLVKPGGSLRLSCAASGFTFSNYWMNWVRQAPGKGLEWVGEIRLKSNNFGRYYAESVKGRVTITRDMSTSTAYMELSSLRSEDTAVYYCAAYGNYVGHYFDHWGQGTTVTVSS VL: DIQLTQSPSFLSASVGDRVTITCKASQNVDTNVAWYQQKPGKAPEPLLFSASYRYTGVPSRFSGSGSGTEFTLTISSLQPEDFATYYCQQYNSYPLTFGGGTKVEIKR | binds |
| M-HHB heavy chain coexpressed with murine 225.28S light chain (mVL) (antibody, V domains shown, also called M-HHB/mVL) VH: EVQLVESGGGLVKPGGSLRLSCAASGFTFSNYWMNWVRQAPGKGLEWVGEIRLKSNNFGRYYAESVKGRFTISRDDSKNTLYLQMNSLKTEDTAVYYCTSYGNYVGHYFDHWGQGTTVTVSS VL: DIELTQSPKFMSTSVGDRVSVTCKASQNVDTNVAWYQQKPGQSPEPLLFSASYRYTGVPDRFTGSGSGTDFTLTISNVQSEDLAEYFCQQYNSYPLTFGGGTKLEIK | binds |
| humanized M-HLG/M-KV9 construct of the 225.28S antibody (antibody, V domains shown, also called M-KV9 together with M-HLG) VH: EVQLVESGGGLVQPGGSLRLSCAASGFTFSNYWMNWVRQAPGKGLEWVAEIRLKSNNFGRYYAASVKGRFTISRDDSKNTLYLQMNSLKTEDTAVYYCTTYGNYVGHYFDHWGQGTTVTVSS VL: DIQLTQSPSFLSASVGDRVTITCKASQNVDTNVAWYQQKPGQAPRPLIYSASYRYTGVPSRFSGSGSGTEFTLTISSLQPEDFATYYCQQYNSYPLTFGGGTKVEIKR | binds |
| M-KV9 light chain combined with the M-HHB heavy chain (antibody, V domains shown, also called M-KV9 with M-HHB; M-HHB/M-KV9) VH: EVQLVESGGGLVKPGGSLRLSCAASGFTFSNYWMNWVRQAPGKGLEWVGEIRLKSNNFGRYYAESVKGRFTISRDDSKNTLYLQMNSLKTEDTAVYYCTSYGNYVGHYFDHWGQGTTVTVSS VL: DIQLTQSPSFLSASVGDRVTITCKASQNVDTNVAWYQQKPGQAPRPLIYSASYRYTGVPSRFSGSGSGTEFTLTISSLQPEDFATYYCQQYNSYPLTFGGGTKVEIKR | binds |
| M-KV4 light chain paired with the M-HHB heavy chain (antibody, V domains shown, also called M-HHB/M-KV4) VH: EVQLVESGGGLVKPGGSLRLSCAASGFTFSNYWMNWVRQAPGKGLEWVGEIRLKSNNFGRYYAESVKGRFTISRDDSKNTLYLQMNSLKTEDTAVYYCTSYGNYVGHYFDHWGQGTTVTVSS VL: DIQLTQSPSFLSASVGDRVTITCKASQNVDTNVAWYQQKPGKAPEPLLFSASYRYTGVPSRFSGSGSGTEFTLTISSLQPEDFATYYCQQYNSYPLTFGGGTKVEIKR | binds |
| M-KV5 light chain paired with the M-HHB heavy chain (antibody, V domains shown, also called M-HHB/M-KV5) VH: EVQLVESGGGLVKPGGSLRLSCAASGFTFSNYWMNWVRQAPGKGLEWVGEIRLKSNNFGRYYAESVKGRFTISRDDSKNTLYLQMNSLKTEDTAVYYCTSYGNYVGHYFDHWGQGTTVTVSS VL: DIQLTQSPSFLSASVGDRVTITCKASQNVDTNVAWYLQKPGQSPQLLIYSASYRYTGVPSRFSGSGSGTEFTLTISSLQPEDFATYYCQQYNSYPLTFGGGTKVEIKR | no binding (tested: 1-5000 ng/ml final concentration) |
| M-KV7 light chain paired with the M-HHB heavy chain (antibody, V domains shown, also called M-KV7 antibody; M-HHB/M-KV7) VH: EVQLVESGGGLVKPGGSLRLSCAASGFTFSNYWMNWVRQAPGKGLEWVGEIRLKSNNFGRYYAESVKGRFTISRDDSKNTLYLQMNSLKTEDTAVYYCTSYGNYVGHYFDHWGQGTTVTVSS VL: DIQLTQSPSFLSASVGDRVTITCKASQNVDTNVAWYQQKPGKAPKPLIYSASYRYTGVPSRFSGSGSGTEFTLTISSLQPEDFATYYCQQYNSYPLTFGGGTKVEIKR | binds |
| M-KV10 light chain combined with the M-HLG heavy chain (antibody, V domains shown, also called M-HLG/M-KV10) VH: EVQLVESGGGLVQPGGSLRLSCAASGFTFSNYWMNWVRQAPGKGLEWVAEIRLKSNNFGRYYAASVKGRFTISRDDSKNTLYLQMNSLKTEDTAVYYCTTYGNYVGHYFDHWGQGTTVTVSS VL: DIQLTQSPSFLSASVGDRVTITCRASQNVDTNLAWYQQKPGQAPRPLIYSASYRYTGVPSRFSGSGSGTEFTLTISSLQPEDFATYYCQQYNSYPLTFGGGTKVEIKR | binds |
| M-KV6 light chain paired with the M-HHB heavy chain (antibody, V domains shown, also called M-HHB/M-KV6) VH: EVQLVESGGGLVKPGGSLRLSCAASGFTFSNYWMNWVRQAPGKGLEWVGEIRLKSNNFGRYYAESVKGRFTISRDDSKNTLYLQMNSLKTEDTAVYYCTSYGNYVGHYFDHWGQGTTVTVSS VL: DIQLTQSPSFLSASVGDRVTITCKASQNVDTNVAWFQQRPGQSPRRLIYSASYRYTGVPSRFSGSGSGTEFTLTISSLQPEDFATYYCQQYNSYPLTFGGGTKVEIKR | no binding (tested: 1-5000 ng/ml final concentration) |

From US20060223096A1 (GLYCART BIOTECHNOLOGY, published 2006)
